Data as given in US6509165.

Target: RT1.D (rat MHC class II molecule) (rat)
Experiment: cell-based or functional assay

inhibition of proliferation of PI-specific T cells to 20 ug/ml PI peptide: 22 to 25%
Substance: Ox-17 (anti-RT1.D antibody)
